US20210355227A1 (Regeneron, published 2021)
Changes are numbered by the printed parent chain.

T1: human GLP1R expressed with mouse IgG2a Fc (human)
T1 construct: It is probably the N-terminal region, as for hGLP1R-MMH, but the sentence is ambiguous; also called hGLP1R-mFc
T1 chain: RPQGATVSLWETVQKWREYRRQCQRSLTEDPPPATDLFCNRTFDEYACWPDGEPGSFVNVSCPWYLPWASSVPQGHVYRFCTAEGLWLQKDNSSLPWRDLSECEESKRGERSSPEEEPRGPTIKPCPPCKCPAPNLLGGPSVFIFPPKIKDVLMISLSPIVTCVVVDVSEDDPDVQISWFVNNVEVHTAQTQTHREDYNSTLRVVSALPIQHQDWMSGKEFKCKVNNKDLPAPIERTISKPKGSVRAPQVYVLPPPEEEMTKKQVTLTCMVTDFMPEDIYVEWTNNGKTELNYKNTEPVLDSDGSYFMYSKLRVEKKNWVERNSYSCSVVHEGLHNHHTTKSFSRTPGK

T2: macaca fascicularis GLP1R-MMH (macaca fascicularis)
T2 construct: also called mfGLP1R-MMH; monomeric cynomolgus GLP1R
T2 chain: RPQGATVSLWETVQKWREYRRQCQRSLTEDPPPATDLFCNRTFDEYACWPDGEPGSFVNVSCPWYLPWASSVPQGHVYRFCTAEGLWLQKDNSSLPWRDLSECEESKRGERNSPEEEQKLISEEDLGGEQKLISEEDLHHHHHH

T3: in-line fusion protein of human desA-GLP1 and GLP1R-MMH (human)
T3 construct: also called hdesA-GLP1_GLP1R-MMH
T3 chain: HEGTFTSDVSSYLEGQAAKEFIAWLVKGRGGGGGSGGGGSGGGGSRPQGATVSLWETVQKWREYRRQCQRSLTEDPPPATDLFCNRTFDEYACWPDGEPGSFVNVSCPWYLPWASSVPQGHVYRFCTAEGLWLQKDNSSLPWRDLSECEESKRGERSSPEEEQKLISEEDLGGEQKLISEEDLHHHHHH

T4: N-terminal region of human GLP1R-MMH (human)
T4 construct: also called hGLP1R-MMH
T4 chain: T2 chain with N112S

T5: mouse GLP1R-MMH (mouse)
T5 construct: It was injected at 100 nM only; also called mGLP1R-MMH; monomeric mouse GLP1R
T5 chain: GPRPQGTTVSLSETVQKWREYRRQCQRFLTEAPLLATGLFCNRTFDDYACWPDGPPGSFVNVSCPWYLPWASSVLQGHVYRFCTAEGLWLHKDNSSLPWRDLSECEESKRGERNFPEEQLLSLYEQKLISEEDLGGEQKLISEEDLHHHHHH

B1: mAb37645 (antibody, human IgG4 S228P, kappa, V domains shown)
VH: QVRLQQWGAGLLKPSETLSLTCAVYGGSFSGYFWSWIRQPPGKGLEWIGEINHGGNTNSNPSLKSRVTISVDTSKNQFSLKLSAVIAADTAVYYCARGQYRSGGGYWYFDLWGRGTLVTVSS
VL: EIVLTQSPGTLSLSPGERATLSCRASQSISSVHLAWYQQKPGQAPRLLIYGASSRATGIPDRFSGSGSETDFTLTVSRLEPDDFTMYYCQQYGSSPWTFGQGTKVEIKR
notes: In SPR the mAbs were captured by a human-Fc-specific antibody
B2: mAb37639 (antibody, human IgG4 S228P, kappa, V domains shown)
VH: EVQLLESGGGVVQPGGSLRLSCVASGFTFSSYAMSWVRQAPGKGLEWVSSISGSGGSTDNADSVKGRFTISRDNSKNTLYLQMNSLRAEDTAVYYCAKDRITIFGVVLNGAFDIWGQGTMVTVSS
VL: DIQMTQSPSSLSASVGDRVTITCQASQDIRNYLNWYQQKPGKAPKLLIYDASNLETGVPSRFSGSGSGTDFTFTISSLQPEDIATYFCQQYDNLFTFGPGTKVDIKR
notes: as for B1
B3: mAb36986 (antibody, human IgG4 S228P, kappa, V domains shown)
VH: QVQLVQSGTEVKKPGASVKVSCMASGYTFTTYGISWVRQAPGQGLEWMGWISAYNGNTKYAQRLQGRVTMTTDTSTTTAYMGLRGLRSDDTAVYFCARVTLSGRFDYWGQGTLVTVSP
VL: DIQMTQSPSSLSASVGDRVTITCQASQDISDYLNWYQQKPGKAPKLLIYDASNLETGVPSRFSGSGSGTDFTFTIRSLQPEDIATYYCQQYDNLPYTFGQGTKLEIKR
notes: as for B1

Molecular target: T1, human GLP1R expressed with mouse IgG2a …
Experiment: SPR Biacore 4000, mAb captured by anti-human Fc, 37 C
Procedure: (§1) The equilibrium dissociation constant (KD) for GLP1R binding to selected GLP1R monoclonal antibodies (mAbs) was determined using a real-time surface plasmon resonance biosensor using a Biacore 4000 instrument. All binding studies were performed in 10 mM HEPES, 150 mM NaCl, 3 mM EDTA, and 0.05% v/v Surfactant Tween-20, pH 7.4 (HBS-ET) running buffer at 25° C. and 37° C. The Biacore CM5 sensor chip surface was first derivatized by amine coupling with human Fc specific mouse mAb to capture different GLP1R mAbs. […] At the end of each cycle, the GLP1R mAb capture surface was regenerated using a 12 sec injection of 20 mM phosphoric acid.
(§2) The association rate (kₐ) and dissociation rate (kd) were determined by fitting the real-time binding sensorgrams to a 1:1 binding model with mass transport limitation using Scrubber 2.0 c curve-fitting software. Binding dissociation equilibrium constant (KD) and dissociative half-life (t½) were calculated from the kinetic rates as:

| Binder | 100 nM hGLP1R-mFc Bound (RU) | Kd [nM] | koff [s⁻¹] | kon [M⁻¹ s⁻¹] | t½ [min] |
| --- | --- | --- | --- | --- | --- |
| B1 | 116 | 2.59 | 0.00065 | 251000 | 18 |
| B2 | 185 | 3.52 | 0.000354 | 101000 | 33 |
| B3 | 246 | 3.35 | 0.000432 | 129000 | 27 |

Molecular target: T2, macaca fascicularis GLP1R-MMH
Experiment: as above
Procedure: as §1
(§3) The association rate (kₐ) and dissociation rate (kd) were determined by fitting the real-time binding sensorgrams to a 1:1 binding model with mass transport limitation using Scrubber 2.0 c curve-fitting software.

| Binder | 100 nM mfGLP1R-MMH Bound (RU) | Kd [nM] | koff [s⁻¹] | kon [M⁻¹ s⁻¹] | t½ [min] |
| --- | --- | --- | --- | --- | --- |
| B1 | 42 | 55.2 | 0.00384 | 69500 | 3 |
| B2 | 110 | 1.94 | 0.000418 | 215000 | 28 |
| B3 | 128 | 1.59 | 0.000501 | 315000 | 23 |

Molecular target: T1, human GLP1R expressed with mouse IgG2a …
Experiment: SPR Biacore 4000, mAb captured by anti-human Fc, 25 C
Procedure: as §1, §2

| Binder | 100 nM hGLP1R-mFc Bound (RU) | Kd [nM] | koff [s⁻¹] | kon [M⁻¹ s⁻¹] | t½ [min] |
| --- | --- | --- | --- | --- | --- |
| B1 | 91 | 1.42 | 0.000183 | 128000 | 63 |
| B2 | 122 | 2.37 | 0.000156 | 65900 | 74 |
| B3 | 187 | 0.735 | 7.64e-05 | 104000 | 151 |

Molecular target: T2, macaca fascicularis GLP1R-MMH
Experiment: as above
Procedure: as §1, §3

| Binder | 100 nM mfGLP1R-MMH Bound (RU) | Kd [nM] | koff [s⁻¹] | kon [M⁻¹ s⁻¹] | t½ [min] |
| --- | --- | --- | --- | --- | --- |
| B1 | 35 | 19.6 | 0.000826 | 42200 | 14 |
| B2 | 83 | 1.42 | 0.000195 | 137000 | 59 |
| B3 | 103 | 0.424 | 0.000102 | 240000 | 113 |

Molecular target: T3, in-line fusion protein of human …
Experiment: as above
Procedure: as §1, §2

| Binder | 100 nM hdesA-GLP1_GLP1R-MMH Bound (RU) | Kd [nM] | koff [s⁻¹] | kon [M⁻¹ s⁻¹] | t½ [min] |
| --- | --- | --- | --- | --- | --- |
| B1 | 58 | 4.32 | 0.00052 | 120000 | 22 |
| B2 | 8 | 16 | 0.00019 | 11900 | 61 |
| B3 | 13 | 3.56 | 0.000108 | 30400 | 107 |

Molecular target: T4, N-terminal region of human GLP1R-MMH
Experiment: as above
Procedure: as §1, §3

| Binder | 100 nM hGLP1R-MMH Bound (RU) | Kd [nM] | koff [s⁻¹] | kon [M⁻¹ s⁻¹] | t½ [min] |
| --- | --- | --- | --- | --- | --- |
| B1 | 60 | 5.72 | 0.000866 | 152000 | 13 |
| B2 | 103 | 0.474 | 0.000186 | 393000 | 62 |
| B3 | 115 | 0.139 | 9.97e-05 | 717000 | 116 |

Molecular target: T5, mouse GLP1R-MMH
Experiment: as above
Procedure: as §1, §2

| Binder | 100 nM mGLP1R-MMH Bound (RU) | Kd [nM] | koff [s⁻¹] | kon [M⁻¹ s⁻¹] | t½ [min] |
| --- | --- | --- | --- | --- | --- |
| B1 | 30 | 10.8 | 0.000617 | 56900 | 19 |
| B2 | 85 | 16.9 | 0.00454 | 269000 | 2.5 |
| B3 | 88 | 20.1 | 0.00902 | 449000 | 1.3 |

Molecular target: T4, N-terminal region of human GLP1R-MMH
Experiment: SPR Biacore 4000, mAb captured by anti-human Fc, 37 C
Procedure: as §1, §3

| Binder | 100 nM hGLP1R-MMH Bound (RU) | Kd [nM] | koff [s⁻¹] | kon [M⁻¹ s⁻¹] | t½ [min] |
| --- | --- | --- | --- | --- | --- |
| B1 | 70 | 18 | 0.00349 | 195000 | 3.3 |
| B2 | 123 | 0.632 | 0.000422 | 668000 | 27 |
| B3 | 135 | 0.594 | 0.000544 | 915000 | 21 |

molecular target: full-length human GLP1R on HEK293/CRE-luc/GLP1R cells (human, UniProt P43220 24-463); experiment: cell-based or functional assay

| Binder | % Inhibition of human GLP1R activation by 40 pM GLP1 (CRE-luciferase reporter) [%] | IC50 [M] of inhibition of human GLP1R activation by 40 pM GLP1 (CRE-luciferase reporter) [M] |
| --- | --- | --- |
| B1 | 73 | 1.23e-09 |
| B2 | 100 | 6.55e-09 |
| B3 | 100 | 1.69e-09 |

Molecular target: T5, mouse GLP1R-MMH
Experiment: SPR Biacore 4000, mAb captured by anti-human Fc, 37 C
Procedure: as §1, §2

| Binder | 100 nM mGLP1R-MMH Bound (RU) | Kd [nM] | koff [s⁻¹] | kon [M⁻¹ s⁻¹] | t½ [min] |
| --- | --- | --- | --- | --- | --- |
| B1 | 42 | 29.8 | 0.00249 | 83600 | 4.6 |
| B2 | 97 | 22.1 | 0.00959 | 435000 | 1.2 |
| B3 | 70 | 74.7 | 0.0485 | 649000 | 0.24 |

Molecular target: T3, in-line fusion protein of human …
Experiment: as above
Procedure: as §1, §3

| Binder | 100 nM hdesA-GLP1_GLP1R-MMH Bound (RU) | Kd [nM] | koff [s⁻¹] | kon [M⁻¹ s⁻¹] | t½ [min] |
| --- | --- | --- | --- | --- | --- |
| B1 | 71 | 16.5 | 0.00229 | 139000 | 5 |
| B2 | 21 | 74.2 | 0.00127 | 17100 | 9 |
| B3 | 28 | 60.4 | 0.000987 | 16300 | 12 |
